Consider two proteins from patent US20230272446A1 (University of Washington, published 2023).

This data set deals with the molecule itself. Put plainly: analytical size exclusion chromatography with multi-angle light scattering (SEC-MALS); self-association (homodimer). (In general: In gel filtration, larger molecules generally elute earlier.)

B1: DHR49 (designed helical repeat protein 49) (other)
chain: MDSEEEQERIRRILKEARKSGTEESLRQAIEDVAQLAKKSQDSEVLEEAIRVILRIAKESGSEEALRQAIRAVAEIAKEAQDSEVLEEAIRVILRIAKESGSEEALRQAIRAVAEIAKEAQDPRVLEEAIRVIRQIAEESGSEEARRQAERAEEEIRRRAQGWLEHHHHHH
Turning to B1, the binding result is “binds”.

B2: DHR76 (designed helical repeat protein 76) (other)
chain: MNPELEEWIRRAKEVAKEVEKVAQRAEEEGNPDLRDSAKELRRAVEEAIEEAKKQGNPELVEWVARAAKVAAEVIKVAIQAEKEGNRDLFRAALELVRAVIEAIEEAVKQGNPELVEWVARAAKVAAEVIKVAIQAEKEGNRDLFRAALELVRAVIEAIEEAVKQGNPELVERVARLAKKAAELIKRAIRAEKEGNRDERREALERVREVIERIEELVRQGGWLEHHHHHH
As for B2, the binding result was “binds”.
